Source: patent US20130040894A1, “INHIBITION OR ACTIVATION OF SERINE/THREONINE ULK3 KINASE ACTIVITY” (TALLINN UNIVERSITY OF TECHNOLOGY, priority 2009, published 2013)

Tested on: GLI-dependent firefly luciferase activity in Shh-LIGHT2 cells
Experiment: GLI-dependent luciferase assay in Shh-L2 cells
Format: cell-based, mouse
Details: for enhancement of transcriptional activity of overexpressed GLI1: cotransfected with GLI1, Shh-L2 cells; for enhancement of transcriptional activity of overexpressed GLI2: cotransfected with GLI2, Shh-L2 cells; for stimulation of GLI-dependent luciferase activity: kinase construct alone, Shh-L2 cells, normalized with β-galactosidase
Procedure: Cells were transfected by the expression constructs or respective empty vectors using Polyethylenimine transfection agent (PEI) (Inbio) and as described in [28]. We used 0.25 μg of cDNA per 1 cm^2 of plate surface area for transfections. After 3 h of transfection HEK293, NIH3T3 and Cos1 cells were propagated in the normal growth medium for 48 h. Prior the further analysis the cells were washed twice with PBS. Post-transfectional Shh-L2 cells were grown in the normal growth medium for 24 h and for additional 24 h in the Light medium containing 0.25% FBS, washed once with PBS, lysed in Passive Lysis Buffer (Promega, Madison Wis., USA) (70 ul per well of 24-well plate format) and subjected to luciferase assay.
Luciferase assay was performed as previously described. Briefly, firefly luciferase activity of 12 μl of the Shh-L2 cells lysate was measured using Luciferase Assay Kit (Promega) and galactosidase activity was quantified using Galacto-LightPlus kit (Tropix, Bedford Mass., USA) according to the manufacturer's instructions. Chemiluminicence was measured using Ascent FL Fluoroscan (Thermo Electron Corporation, Waltham Mass., USA) according to the manufacturer's instructions.
We cotransfected the constructs together with GLI-expressing plasmids (or respective empty vector) into Shh-L2 cells and assessed their effect on GLI-dependent firefly luciferase activity. The obtained data was normalized with β-galactosidase values. […] It was able to stimulate the luciferase activity 3.8 times and enhanced the transcriptional activity of over expressed GLI1 and GLI2 approximately 2 and 3.2 times, respectively. The potency of STK36 in the assay was much lower.
In order to examine if the kinase activity of ULK3 is required for the luciferase reporter activation we tested the supposed kinase-deficient variants of ULK3, ULK3(K44R) and ULK3(K139R) in the same assay. […] We also tested the effect of ULK3 and the mutants on the luciferase reporter when the SHH pathway was activated by cotransfection with pShhN (plasmid expressing biologically active part of SHH).

Row | Molecule | enhancement of transcriptional activity of overexpressed GLI1 | enhancement of transcriptional activity of overexpressed GLI2 | stimulation of GLI-dependent luciferase activity
1 | STK36: human serine/threonine kinase STK36, mammalian orthologue of dFu, expressed from STK36pcDNA3.1 (protein, UniProt Q9NRP7 1-1315, looked up) Serine/threonine-protein …: MEKYHVLEMIGEGSFGRVYKGRRKYSAQVVALKFIPKLGRSEKELRNLQREIEIMRGLRHPNIVHMLDSFETDKEVVVVTDYAEGELFQILEDDGKLPEDQVQAIAAQLVSALYYLHSHRILHRDMKPQNILLAKGGGIKLCDFGFARAMSTNTMVLTSIKGTPLYMSPELVEERPYDHTADLWSVGCILYELAVGTPPFYATSIFQLVSLILKDPVRWPSTISPCFKNFLQGLLTKDPRQRLSWPDLLYHPFIAGHVTIITEPAGPDLGTPFTSRLPPELQVLKDEQAHRLAPKGNQSRILTQAYKRMAEEAMQKKHQNTGPALEQEDKTSKVAPGTAPLPRLGATPQESSLLAGILASELKSSWAKSGTGEVPSAPRENRTTPDCERAFPEERPEVLGQRSTDVVDLENEEPDSDNEWQHLLETTEPVPIQLKAPLTLLCNPDFCQRIQSQLHEAGGQILKGILEGASHILPAFRVLSSLLSSCSDSVALYSFCREAGLPGLLLSLLRHSQESNSLQQQSWYGTFLQDLMAVIQAYFACTFNLERSQTSDSLQVFQEAANLFLDLLGKLLAQPDDSEQTLRRDSLMCFTVLCEAMDGNSRAISKAFYSSLLTTQQVVLDGLLHGLTVPQLPVHTPQGAPQVSQPLREQSEDIPGAISSALAAICTAPVGLPDCWDAKEQVCWHLANQLTEDSSQLRPSLISGLQHPILCLHLLKVLYSCCLVSEGLCRLLGQEPLALESLFMLIQGKVKVVDWEESTEVTLYFLSLLVFRLQNLPCGMEKLGSDVATLFTHSHVVSLVSAAACLLGQLGQQGVTFDLQPMEWMAAATHALSAPAEVRLTPPGSCGFYDGLLILLLQLLTEQGKASLIRDMSSSEMWTVLWHRFSMVLRLPEEASAQEGELSLSSPPSPEPDWTLISPQGMAALLSLAMATFTQEPQLCLSCLSQHGSILMSILKHLLCPSFLNQLRQAPHGSEFLPVVVLSVCQLLCFPFALDMDADLLIGVLADLRDSEVAAHLLQVCCYHLPLMQVELPISLLTRLALMDPTSLNQFVNTVSASPRTIVSFLSVALLSDQPLLTSDLLSLLAHTARVLSPSHLSFIQELLAGSDESYRPLRSLLGHPENSVRAHTYRLLGHLLQHSMALRGALQSQSGLLSLLLLGLGDKDPVVRCSASFAVGNAAYQAGPLGPALAAAVPSMTQLLGDPQAGIRRNVASALGNLGPEGLGEELLQCEVPQRLLEMACGDPQPNVKEAALIALRSLQQEPGIHQVLVSLGASEKLSLLSLGNQSLPHSSPRPASAKHCRKLIHLLRPAHSM | no effect | 1.6 times | failed to activate
2 | ULK1: unc-51-like kinase 1, homologue of ULK3, overexpressed in Shh-L2 cells (protein, UniProt O75385 1-1050, looked up) Serine/threonine-protein …: MEPGRGGTETVGKFEFSRKDLIGHGAFAVVFKGRHREKHDLEVAVKCINKKNLAKSQTLLGKEIKILKELKHENIVALYDFQEMANSVYLVMEYCNGGDLADYLHAMRTLSEDTIRLFLQQIAGAMRLLHSKGIIHRDLKPQNILLSNPAGRRANPNSIRVKIADFGFARYLQSNMMAATLCGSPMYMAPEVIMSQHYDGKADLWSIGTIVYQCLTGKAPFQASSPQDLRLFYEKNKTLVPTIPRETSAPLRQLLLALLQRNHKDRMDFDEFFHHPFLDASPSVRKSPPVPVPSYPSSGSGSSSSSSSTSHLASPPSLGEMQQLQKTLASPADTAGFLHSSRDSGGSKDSSCDTDDFVMVPAQFPGDLVAEAPSAKPPPDSLMCSGSSLVASAGLESHGRTPSPSPPCSSSPSPSGRAGPFSSSRCGASVPIPVPTQVQNYQRIERNLQSPTQFQTPRSSAIRRSGSTSPLGFARASPSPPAHAEHGGVLARKMSLGGGRPYTPSPQVGTIPERPGWSGTPSPQGAEMRGGRSPRPGSSAPEHSPRTSGLGCRLHSAPNLSDLHVVRPKLPKPPTDPLGAVFSPPQASPPQPSHGLQSCRNLRGSPKLPDFLQRNPLPPILGSPTKAVPSFDFPKTPSSQNLLALLARQGVVMTPPRNRTLPDLSEVGPFHGQPLGPGLRPGEDPKGPFGRSFSTSRLTDLLLKAAFGTQAPDPGSTESLQEKPMEIAPSAGFGGSLHPGARAGGTSSPSPVVFTVGSPPSGSTPPQGPRTRMFSAGPTGSASSSARHLVPGPCSEAPAPELPAPGHGCSFADPITANLEGAVTFEAPDLPEETLMEQEHTEILRGLRFTLLFVQHVLEIAALKGSASEAAGGPEYQLQESVVADQISLLSREWGFAEQLVLYLKVAELLSSGLQSAIDQIRAGKLCLSSTVKQVVRRLNELYKASVVSCQGLSLRLQRFFLDKQRLLDRIHSITAERLIFSHAVQMVQSAALDEMFQHREGCVPRYHKALLLLEGLQHMLSDQADIENVTKCKLCIERRLSALLTGICA | no effect | no effect | 3.4 times
